Measured values reported in patent US20120219562A1 (AbbVie / Abbott, published 2012).

T1: human interleukin 12 (human, UniProt P29459 23-219; P29460 23-328)
T1 construct: heterodimer of p35 and p40 linked by a disulfide bridge; also called hIL-12; IL-12
T1 sequence (looked up) 1: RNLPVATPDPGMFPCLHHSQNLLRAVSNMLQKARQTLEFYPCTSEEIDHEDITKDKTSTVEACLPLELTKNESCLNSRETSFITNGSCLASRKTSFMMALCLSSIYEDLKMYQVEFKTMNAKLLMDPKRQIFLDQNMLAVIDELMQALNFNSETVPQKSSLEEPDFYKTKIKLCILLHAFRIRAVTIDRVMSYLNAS
T1 sequence (looked up) 2: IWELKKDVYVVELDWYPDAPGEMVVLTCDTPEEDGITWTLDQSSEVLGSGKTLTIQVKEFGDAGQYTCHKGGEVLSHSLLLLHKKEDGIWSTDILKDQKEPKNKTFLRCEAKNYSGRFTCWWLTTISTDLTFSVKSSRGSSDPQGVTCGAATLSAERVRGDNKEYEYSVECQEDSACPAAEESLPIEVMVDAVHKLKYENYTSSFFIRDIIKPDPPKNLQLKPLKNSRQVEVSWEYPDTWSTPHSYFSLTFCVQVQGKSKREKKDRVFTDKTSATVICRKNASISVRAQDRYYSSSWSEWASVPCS


biological target: T1, human interleukin 12; test: SPR (BIAcore)

| Binder | koff [s⁻¹] |
| --- | --- |
| 73-F5 (antibody, V domains shown) VH: QVQLVQSGGGVVQPGRSLRLSCAASGFTFSSYGMHWVRQAPGKGLEWVAFIRYDGSNKYYADSVKGRFTISRDNSKNTLYLQMKSLRAEDTAVYYCTTSGSYDYWGQGTMVTVSS VL: SYVLTQPPSVSGTPGQRVTISCSGGRSNIGSNTVKWYQQLPGTAPKLLIYGNDQRPSGVPDRFSGSKSGTSASLAITGVQAEDEADYYCQSYDSDFTGSKVFGTGTKVTVLG | 0.00374 |
| 73-C6 (antibody, V domains shown) VH: QVQLVQSGGGVVQPGRSLRLSCAASGFTFSSYGMHWVRQAPGKGLEWVAFIRYDGSNKYYADSVKGRFTISRDNSKNTLYLQMKSLRAEDTAVYYCTTSGSYDYWGQGTMVTVSS VL: SYVLTQPPSVSGTPGQRVTISCSGGRSNIGSNTVKWYQQLPGTAPKLLIYGNDQRPSGVPDRFSGSKSGTSASLAITGVQAEDEADYYCQSYDTGFTGSRVFGTGTKVTVLG | 0.00396 |
| 73-B2 (antibody, V domains shown) VH: QVQLVQSGGGVVQPGRSLRLSCAASGFTFSSYGMHWVRQAPGKGLEWVAFIRYDGSNKYYADSVKGRFTISRDNSKNTLYLQMKSLRAEDTAVYYCTTSGSYDYWGQGTMVTVSS VL: SYVLTQPPSVSGTPGQRVTISCSGGRSNIGSNTVKWYQQLPGTAPKLLIYGNDQRPSGVPDRFSGSKSGTSASLAITGVQAEDEADYYCHSSESGFTGSRVFGTGTKVTVLG | 0.00207 |
| 73-D1 (antibody, V domains shown) VH: QVQLVQSGGGVVQPGRSLRLSCAASGFTFSSYGMHWVRQAPGKGLEWVAFIRYDGSNKYYADSVKGRFTISRDNSKNTLYLQMKSLRAEDTAVYYCTTSGSYDYWGQGTMVTVSS VL: SYVLTQPPSVSGTPGQRVTISCSGGRSNIGSNTVKWYQQLPGTAPKLLIYGNDQRPSGVPDRFSGSKSGTSASLAITGVQAEDEADYYCHSYDSGFTGSRVFGTGTKVTVLG | 0.00399 |
| 73-F3 (antibody, V domains shown) VH: QVQLVQSGGGVVQPGRSLRLSCAASGFTFSSYGMHWVRQAPGKGLEWVAFIRYDGSNKYYADSVKGRFTISRDNSKNTLYLQMKSLRAEDTAVYYCTTSGSYDYWGQGTMVTVSS VL: SYVLTQPPSVSGTPGQRVTISCSGGRSNIGSNTVKWYQQLPGTAPKLLIYGNDQRPSGVPDRFSGSKSGTSASLAITGVQAEDEADYYCQSYDAPWSGSRVFGTGTKVTVLG | 0.00708 |
| 73-D4 (antibody, V domains shown) VH: QVQLVQSGGGVVQPGRSLRLSCAASGFTFSSYGMHWVRQAPGKGLEWVAFIRYDGSNKYYADSVKGRFTISRDNSKNTLYLQMKSLRAEDTAVYYCTTSGSYDYWGQGTMVTVSS VL: SYVLTQPPSVSGTPGQRVTISCSGGRSNIGSNTVKWYQQLPGTAPKLLIYGNDQRPSGVPDRFSGSKSGTSASLAITGVQAEDEADYYCHSYDTKFTGSRVFGTGTKVTVLG | 0.00536 |
| 73-E3 (antibody, V domains shown) VH: QVQLVQSGGGVVQPGRSLRLSCAASGFTFSSYGMHWVRQAPGKGLEWVAFIRYDGSNKYYADSVKGRFTISRDNSKNTLYLQMKSLRAEDTAVYYCTTSGSYDYWGQGTMVTVSS VL: SYVLTQPPSVSGTPGQRVTISCSGGRSNIGSNTVKWYQQLPGTAPKLLIYGNDQRPSGVPDRFSGSKSGTSASLAITGVQAEDEADYYCQSYDSDFTGSRVFGTGTKVTVLG | 0.00498 |
| 73-C5 (antibody, V domains shown) VH: QVQLVQSGGGVVQPGRSLRLSCAASGFTFSSYGMHWVRQAPGKGLEWVAFIRYDGSNKYYADSVKGRFTISRDNSKNTLYLQMKSLRAEDTAVYYCTTSGSYDYWGQGTMVTVSS VL: SYVLTQPPSVSGTPGQRVTISCSGGRSNIGSNTVKWYQQLPGTAPKLLIYGNDQRPSGVPDRFSGSKSGTSASLAITGVQAEDEADYYCHSHDRDFTGSRVFGTGTKVTVLG | 0.00484 |
| 73-D5 (antibody, V domains shown) VH: QVQLVQSGGGVVQPGRSLRLSCAASGFTFSSYGMHWVRQAPGKGLEWVAFIRYDGSNKYYADSVKGRFTISRDNSKNTLYLQMKSLRAEDTAVYYCTTSGSYDYWGQGTMVTVSS VL: SYVLTQPPSVSGTPGQRVTISCSGGRSNIGSNTVKWYQQLPGTAPKLLIYGNDQRPSGVPDRFSGSKSGTSASLAITGVQAEDEADYYCHSSDSGFTGSRVFGTGTKVTVLG | 0.00357 |
| 73-E6 (antibody, V domains shown) VH: QVQLVQSGGGVVQPGRSLRLSCAASGFTFSSYGMHWVRQAPGKGLEWVAFIRYDGSNKYYADSVKGRFTISRDNSKNTLYLQMKSLRAEDTAVYYCTTSGSYDYWGQGTMVTVSS VL: SYVLTQPPSVSGTPGQRVTISCSGGRSNIGSNTVKWYQQLPGTAPKLLIYGNDQRPSGVPDRFSGSKSGTSASLAITGVQAEDEADYYCHSYESGFTGSRVFGTGTKVTVLG | 0.00417 |
| 73-C2 (antibody, V domains shown) VH: QVQLVQSGGGVVQPGRSLRLSCAASGFTFSSYGMHWVRQAPGKGLEWVAFIRYDGSNKYYADSVKGRFTISRDNSKNTLYLQMKSLRAEDTAVYYCTTSGSYDYWGQGTMVTVSS VL: SYVLTQPPSVSGTPGQRVTISCSGGRSNIGSNTVKWYQQLPGTAPKLLIYGNDQRPSGVPDRFSGSKSGTSASLAITGVQAEDEADYYCQSYDSEFTGSRVFGTGTKVTVLG | 0.00379 |

Results, then the binder that gave them:

| koff [s⁻¹] | Binder |
| --- | --- |
| 0.00389 | 170-21 (antibody, V domains shown) VH: QVQLVQSGGGVVQPGRSLRLSCAASGFTFSSYGMHWVRQAPGKGLEWVAFIRYDGSNKYYADSVKGRFTISRDNSKNTLYLQMKSLRAEDTAVYYCTTHGSQDNWGQGTMVTVSS VL: SYVLTQPPSVSGTPGQRVTISCSGGRSNIGSNTVKWYQQLPGTAPKLLIYGNDQRPSGVPDRFSGSKSGTSASLAITGVQAEDEADYYCQSYDRGFTGPRLFGTGTKVTVL |
| 0.00398 | 73-G2 (antibody, V domains shown) VH: QVQLVQSGGGVVQPGRSLRLSCAASGFTFSSYGMHWVRQAPGKGLEWVAFIRYDGSNKYYADSVKGRFTISRDNSKNTLYLQMKSLRAEDTAVYYCTTSGSYDYWGQGTMVTVSS VL: SYVLTQPPSVSGTPGQRVTISCSGGRSNIGSNTVKWYQQLPGTAPKLLIYGNDQRPSGVPDRFSGSKSGTSASLAITGVQAEDEADYYCHTNDSGFTGSRVFGTGTKVTVLG |
| 0.0063 | 73-G6 (antibody, V domains shown) VH: QVQLVQSGGGVVQPGRSLRLSCAASGFTFSSYGMHWVRQAPGKGLEWVAFIRYDGSNKYYADSVKGRFTISRDNSKNTLYLQMKSLRAEDTAVYYCTTSGSYDYWGQGTMVTVSS VL: SYVLTQPPSVSGTPGQRVTISCSGGRSNIGSNTVKWYQQLPGTAPKLLIYGNDQRPSGVPDRFSGSKSGTSASLAITGVQAEDEADYYCQSYNTDFTGSRVFGTGTKVTVLG |
| 0.00587 | 73-F6 (antibody, V domains shown) VH: QVQLVQSGGGVVQPGRSLRLSCAASGFTFSSYGMHWVRQAPGKGLEWVAFIRYDGSNKYYADSVKGRFTISRDNSKNTLYLQMKSLRAEDTAVYYCTTSGSYDYWGQGTMVTVSS VL: SYVLTQPPSVSGTPGQRVTISCSGGRSNIGSNTVKWYQQLPGTAPKLLIYGNDQRPSGVPDRFSGSKSGTSASLAITGVQAEDEADYYCHSYDMGFTGSRVFGTGTKVTVLG |
| 0.0035 | 73-G3 (antibody, V domains shown) VH: QVQLVQSGGGVVQPGRSLRLSCAASGFTFSSYGMHWVRQAPGKGLEWVAFIRYDGSNKYYADSVKGRFTISRDNSKNTLYLQMKSLRAEDTAVYYCTTSGSYDYWGQGTMVTVSS VL: SYVLTQPPSVSGTPGQRVTISCSGGRSNIGSNTVKWYQQLPGTAPKLLIYGNDQRPSGVPDRFSGSKSGTSASLAITGVQAEDEADYYCHSYDTRFTGSRVFGTGTKVTVLG |
| 0.00685 | 73-H3 (antibody, V domains shown) VH: QVQLVQSGGGVVQPGRSLRLSCAASGFTFSSYGMHWVRQAPGKGLEWVAFIRYDGSNKYYADSVKGRFTISRDNSKNTLYLQMKSLRAEDTAVYYCTTSGSYDYWGQGTMVTVSS VL: SYVLTQPPSVSGTPGQRVTISCSGGRSNIGSNTVKWYQQLPGTAPKLLIYGNDQRPSGVPDRFSGSKSGTSASLAITGVQAEDEADYYCHSYDNGFTGSRVFGTGTKVTVLG |
| 0.00658 | 73-G4 (antibody, V domains shown) VH: QVQLVQSGGGVVQPGRSLRLSCAASGFTFSSYGMHWVRQAPGKGLEWVAFIRYDGSNKYYADSVKGRFTISRDNSKNTLYLQMKSLRAEDTAVYYCTTSGSYDYWGQGTMVTVSS VL: SYVLTQPPSVSGTPGQRVTISCSGGRSNIGSNTVKWYQQLPGTAPKLLIYGNDQRPSGVPDRFSGSKSGTSASLAITGVQAEDEADYYCQSYDMRFTGSRVFGTGTKVTVLG |
| 0.00601 | 73-G5 (antibody, V domains shown) VH: QVQLVQSGGGVVQPGRSLRLSCAASGFTFSSYGMHWVRQAPGKGLEWVAFIRYDGSNKYYADSVKGRFTISRDNSKNTLYLQMKSLRAEDTAVYYCTTSGSYDYWGQGTMVTVSS VL: SYVLTQPPSVSGTPGQRVTISCSGGRSNIGSNTVKWYQQLPGTAPKLLIYGNDQRPSGVPDRFSGSKSGTSASLAITGVQAEDEADYYCHSSDSDSTGSRVFGTGTKVTVLG |
| 0.00593 | 73-H2 (antibody, V domains shown) VH: QVQLVQSGGGVVQPGRSLRLSCAASGFTFSSYGMHWVRQAPGKGLEWVAFIRYDGSNKYYADSVKGRFTISRDNSKNTLYLQMKSLRAEDTAVYYCTTSGSYDYWGQGTMVTVSS VL: SYVLTQPPSVSGTPGQRVTISCSGGRSNIGSNTVKWYQQLPGTAPKLLIYGNDQRPSGVPDRFSGSKSGTSASLAITGVQAEDEADYYCQSYDSGFTGSRVFGTGTKVTVLG |
